system: Escherichia coli TOP10; test: shrunken log2 fold change of peptide-encoding DNA abundance (4.5 h post-induction vs induction); higher = less antimicrobial activity (less host growth inhibition); conditions: time post-induction: 4.5 h; library: site-saturation at positions 5, 18, 19, 20
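Further: peptides expressed intracellularly from a pBAD plasmid library in pooled LB shake-flask culture, induced with 0.3% L-arabinose, DNA abundance read by NGS, three biological replicates, DESeq2 with apeglm shrinkage.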

Row | Sequence | shrunken log2 fold change
1 | RRIRNRPPRLPRPRPRPFIHPRP | -0.116
2 | RRIRNRPPRLPRPRPRPFIPPRP | -0.0923
3 | RRIRNRPPRLPRPRPRPFLDPRP | -0.358
4 | RRIRNRPPRLPRPRPRPFMRPRP | 0.269
5 | RRIRNRPPRLPRPRPRPFPAPRP | -0.0844
6 | RRIRNRPPRLPRPRPRPFPLPRP | -0.0286
7 | RRIRNRPPRLPRPRPRPFQDPRP | -0.00135
8 | RRIRNRPPRLPRPRPRPFRFPRP | -0.199
9 | RRIRNRPPRLPRPRPRPFRNPRP | -0.515
10 | RRIRNRPPRLPRPRPRPFVAPRP | -0.41
11 | RRIRNRPPRLPRPRPRPFVQPRP | -0.225
12 | RRIRNRPPRLPRPRPRPFVSPRP | -0.394
13 | RRIRNRPPRLPRPRPRPFVWPRP | -0.0187
14 | RRIRNRPPRLPRPRPRPFWYPRP | 0.0148
15 | RRIRNRPPRLPRPRPRPFYTPRP | -1.29
16 | RRIRNRPPRLPRPRPRPGAPPRP | 0.492
17 | RRIRNRPPRLPRPRPRPGCDPRP | -0.0442
18 | RRIRNRPPRLPRPRPRPGDPPRP | 0.306
19 | RRIRNRPPRLPRPRPRPGDQPRP | 0.0802
20 | RRIRNRPPRLPRPRPRPGDWPRP | 2.87
21 | RRIRNRPPRLPRPRPRPGFHPRP | -0.0379
22 | RRIRNRPPRLPRPRPRPGGDPRP | 0.00185
23 | RRIRNRPPRLPRPRPRPGGNPRP | -0.0331
24 | RRIRNRPPRLPRPRPRPGHSPRP | -0.152
25 | RRIRNRPPRLPRPRPRPGIAPRP | 0.0989

Row | Sequence | shrunken log2 fold change
26 | RRIRNRPPRLPRPRPRPGIDPRP | -0.042
27 | RRIRNRPPRLPRPRPRPGIIPRP | -0.00401
28 | RRIRNRPPRLPRPRPRPGIVPRP | 0.367
29 | RRIRNRPPRLPRPRPRPGIWPRP | 0.0115
30 | RRIRNRPPRLPRPRPRPGKPPRP | -0.117
31 | RRIRNRPPRLPRPRPRPGMRPRP | 0.504
32 | RRIRNRPPRLPRPRPRPGMTPRP | -0.257
33 | RRIRNRPPRLPRPRPRPGQSPRP | 0.108
34 | RRIRNRPPRLPRPRPRPGRLPRP | -0.0294
35 | RRIRNRPPRLPRPRPRPGRYPRP | 0.00112
36 | RRIRNRPPRLPRPRPRPGVHPRP | 0.25
37 | RRIRNRPPRLPRPRPRPGVKPRP | -0.117
38 | RRIRNRPPRLPRPRPRPGWFPRP | -0.00934
39 | RRIRNRPPRLPRPRPRPGWIPRP | -0.265
40 | RRIRNRPPRLPRPRPRPGYGPRP | -0.0142
41 | RRIRNRPPRLPRPRPRPGYIPRP | -1.11
42 | RRIRNRPPRLPRPRPRPHDDPRP | 0.008
43 | RRIRNRPPRLPRPRPRPHEFPRP | -0.13
44 | RRIRNRPPRLPRPRPRPHFLPRP | -0.217
45 | RRIRNRPPRLPRPRPRPHFPPRP | -0.186
46 | RRIRNRPPRLPRPRPRPHHTPRP | -0.459
47 | RRIRNRPPRLPRPRPRPHILPRP | -0.106
48 | RRIRNRPPRLPRPRPRPHIYPRP | -0.0215
49 | RRIRNRPPRLPRPRPRPHKHPRP | -0.719
50 | RRIRNRPPRLPRPRPRPHKYPRP | -1.52

Row | Sequence | shrunken log2 fold change
51 | RRIRNRPPRLPRPRPRPHLGPRP | -0.317
52 | RRIRNRPPRLPRPRPRPHMAPRP | -0.401
53 | RRIRNRPPRLPRPRPRPHMDPRP | -0.384
54 | RRIRNRPPRLPRPRPRPHMYPRP | 0.0526
55 | RRIRNRPPRLPRPRPRPHPAPRP | 0.116
56 | RRIRNRPPRLPRPRPRPHPQPRP | -0.106
57 | RRIRNRPPRLPRPRPRPHQIPRP | -0.247
58 | RRIRNRPPRLPRPRPRPHRSPRP | 0.283
59 | RRIRNRPPRLPRPRPRPHSQPRP | -0.392
60 | RRIRNRPPRLPRPRPRPHSVPRP | -0.015
61 | RRIRNRPPRLPRPRPRPHSWPRP | 0.00366
62 | RRIRNRPPRLPRPRPRPHTEPRP | 0.0434
63 | RRIRNRPPRLPRPRPRPHTFPRP | -0.0139
64 | RRIRNRPPRLPRPRPRPHTHPRP | -0.438
65 | RRIRNRPPRLPRPRPRPHVMPRP | -0.503
66 | RRIRNRPPRLPRPRPRPIASPRP | 0.0215
67 | RRIRNRPPRLPRPRPRPIAVPRP | -0.0167
68 | RRIRNRPPRLPRPRPRPICAPRP | 0.0914
69 | RRIRNRPPRLPRPRPRPICSPRP | -0.0669
70 | RRIRNRPPRLPRPRPRPIDAPRP | 0.0153
71 | RRIRNRPPRLPRPRPRPIEVPRP | 0.0112
72 | RRIRNRPPRLPRPRPRPIGMPRP | -0.0748
73 | RRIRNRPPRLPRPRPRPIHLPRP | -0.73
74 | RRIRNRPPRLPRPRPRPIHVPRP | -0.224
75 | RRIRNRPPRLPRPRPRPIIHPRP | -0.712

Row | Sequence | shrunken log2 fold change
76 | RRIRNRPPRLPRPRPRPIIPPRP | -0.0623
77 | RRIRNRPPRLPRPRPRPIKGPRP | -0.104
78 | RRIRNRPPRLPRPRPRPILLPRP | -0.103
79 | RRIRNRPPRLPRPRPRPILYPRP | -0.267
80 | RRIRNRPPRLPRPRPRPINAPRP | -0.00965
81 | RRIRNRPPRLPRPRPRPINEPRP | -0.056
82 | RRIRNRPPRLPRPRPRPIQAPRP | -0.0922
83 | RRIRNRPPRLPRPRPRPIRDPRP | 0.201
84 | RRIRNRPPRLPRPRPRPIRKPRP | -0.0111
85 | RRIRNRPPRLPRPRPRPITCPRP | -0.166
86 | RRIRNRPPRLPRPRPRPIVDPRP | -0.139
87 | RRIRNRPPRLPRPRPRPIVGPRP | 0.003
88 | RRIRNRPPRLPRPRPRPIWWPRP | -0.141
89 | RRIRNRPPRLPRPRPRPIYEPRP | -0.232
90 | RRIRNRPPRLPRPRPRPIYIPRP | 0.0152
91 | RRIRNRPPRLPRPRPRPIYKPRP | -0.414
92 | RRIRNRPPRLPRPRPRPKACPRP | -0.00921
93 | RRIRNRPPRLPRPRPRPKCMPRP | -0.0394
94 | RRIRNRPPRLPRPRPRPKCSPRP | 0.0607
95 | RRIRNRPPRLPRPRPRPKDTPRP | -0.018
96 | RRIRNRPPRLPRPRPRPKESPRP | 0.149
97 | RRIRNRPPRLPRPRPRPKFDPRP | -0.235
98 | RRIRNRPPRLPRPRPRPKFQPRP | -0.505
99 | RRIRNRPPRLPRPRPRPKGIPRP | 0.0346
100 | RRIRNRPPRLPRPRPRPKGKPRP | 0.0351

Row | Sequence | shrunken log2 fold change
101 | RRIRNRPPRLPRPRPRPKGLPRP | -0.00227
102 | RRIRNRPPRLPRPRPRPKGYPRP | -0.0233
103 | RRIRNRPPRLPRPRPRPKHNPRP | -0.434
104 | RRIRNRPPRLPRPRPRPKHWPRP | 0.0916
105 | RRIRNRPPRLPRPRPRPKIQPRP | -0.367
106 | RRIRNRPPRLPRPRPRPKKAPRP | -0.0485
107 | RRIRNRPPRLPRPRPRPKKGPRP | 0.0558
108 | RRIRNRPPRLPRPRPRPKKWPRP | -0.00407
109 | RRIRNRPPRLPRPRPRPKMLPRP | -0.043
110 | RRIRNRPPRLPRPRPRPKNGPRP | 0.96
111 | RRIRNRPPRLPRPRPRPKNSPRP | -0.161
112 | RRIRNRPPRLPRPRPRPKPVPRP | 0.24
113 | RRIRNRPPRLPRPRPRPKQWPRP | 0.217
114 | RRIRNRPPRLPRPRPRPKQYPRP | -0.426
115 | RRIRNRPPRLPRPRPRPKRYPRP | 0.0391
116 | RRIRNRPPRLPRPRPRPKSKPRP | 0.0844
117 | RRIRNRPPRLPRPRPRPKSLPRP | -0.433
118 | RRIRNRPPRLPRPRPRPKTLPRP | -0.134
119 | RRIRNRPPRLPRPRPRPKTYPRP | -1.23
120 | RRIRNRPPRLPRPRPRPKVQPRP | 0.341
121 | RRIRNRPPRLPRPRPRPKVTPRP | -0.0149
122 | RRIRNRPPRLPRPRPRPKYNPRP | -0.901
123 | RRIRNRPPRLPRPRPRPLAPPRP | 0.262
124 | RRIRNRPPRLPRPRPRPLAQPRP | 0.0157
125 | RRIRNRPPRLPRPRPRPLASPRP | -0.196

Row | Sequence | shrunken log2 fold change
126 | RRIRNRPPRLPRPRPRPLAWPRP | 0.00628
127 | RRIRNRPPRLPRPRPRPLAYPRP | -0.175
128 | RRIRNRPPRLPRPRPRPLCDPRP | 0.0696
129 | RRIRNRPPRLPRPRPRPLFTPRP | -0.0916
130 | RRIRNRPPRLPRPRPRPLGGPRP | 0.105
131 | RRIRNRPPRLPRPRPRPLGQPRP | 0.0394
132 | RRIRNRPPRLPRPRPRPLHAPRP | -0.0128
133 | RRIRNRPPRLPRPRPRPLHWPRP | -0.273
134 | RRIRNRPPRLPRPRPRPLIGPRP | -0.0791
135 | RRIRNRPPRLPRPRPRPLIRPRP | -0.0892
136 | RRIRNRPPRLPRPRPRPLKPPRP | 0.203
137 | RRIRNRPPRLPRPRPRPLLKPRP | -0.539
138 | RRIRNRPPRLPRPRPRPLLPPRP | 0.0144
139 | RRIRNRPPRLPRPRPRPLMKPRP | -0.431
140 | RRIRNRPPRLPRPRPRPLMTPRP | 0.0149
141 | RRIRNRPPRLPRPRPRPLNPPRP | -0.133
142 | RRIRNRPPRLPRPRPRPLPWPRP | 0.00924
143 | RRIRNRPPRLPRPRPRPLQWPRP | 0.0683
144 | RRIRNRPPRLPRPRPRPLSEPRP | 0.0166
145 | RRIRNRPPRLPRPRPRPLSFPRP | -0.387
146 | RRIRNRPPRLPRPRPRPLSGPRP | 0.0992
147 | RRIRNRPPRLPRPRPRPLSTPRP | 0.0462
148 | RRIRNRPPRLPRPRPRPLTLPRP | -0.358
149 | RRIRNRPPRLPRPRPRPLTNPRP | 0.00172
150 | RRIRNRPPRLPRPRPRPLVFPRP | -0.147
